Laboratory results reported in publication doi:10.1101/2023.10.13.562155 (bioRxiv, 2023).

Target: T1, human p75^NTR JXT domain (K273-D332) (human, UniProt P08138 273-332)
T1 sequence (looked up): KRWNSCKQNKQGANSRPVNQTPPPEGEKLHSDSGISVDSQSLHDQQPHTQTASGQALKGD
Test: NMR titration

- binding result: binds
B1: RhoGDI NTD^S34D (A2-A60) (domain or fragment, human, UniProt P52565 2-60, looked up)
chain: AEQEPTAEQLAQIAAENEEDEHSVNYKPPAQKDIQEIQELDKDDESLRKYKEALLGRVA
